The results in this text go back to US20110275559A1, “Long-Acting Y2 and/or Y4 Receptor Agonists” (Novo Nordisk A/S, priority 2008, published 2011).

*1 amine or outer side, *2 acyl side, *3 side chain or, on linkers, in order; H or OH if unused. Where a SMILES comes first, the peptide text is derived from it. Where no end group is shown, it is not given here. Side-chain parts run from the residue outwards. The star is where a group is joined. C20 diacid = O=C(O)CCCCCCCCCCCCCCCCCCC(=O)*; C18 diacid = O=C(O)CCCCCCCCCCCCCCCCC(=O)*; γGlu = O=C(O)[C@H](CCC(=O)[*:2])N[*:1]; Trx = NC[C@H]1CC[C@H](C(=O)O)CC1; AEEA = NCCOCCOCC(=O)O Bounds are passed on as bounds.

The nature of series [1]: Mini-pig PK assay (plasma half-life). To be noted: Göttingen, minipig, in vivo, iv, 8 nmol/kg. Here is the method: (§1) The mini-pigs had two central venous catheters inserted which were used for intra venous (i.v.) dosing and bloodsampling. Compound was dissolved in 50 mM K2HPO4, 0.05% tween 80, pH=8.0 to a concentration of 180 nmol/ml. The pigs were dosed with 6 nmol compound/kg body weight. […] The blood samples were collected into test tubes containing EDTA buffer for stabilization and kept on ice for max. 20 minutes before centrifugation. The centrifugation procedure to separate plasma was; 4° C., 3000 rpm for 10 minutes. Plasma were collected and immediately transferred to Micronic tubes stored at −20° C. until assayed.
An additional mini-pig PK assay was used for measuring PK of the compounds of the invention. […] The animals had two central venous catheters inserted which were used for intra venous (i.v.) dosing and blood sampling. Compounds were dissolved in 10 mM Na2HPO4, 150 mM NaCl, 0.01% tween 80, pH=4.0 to concentrations in the range of 40 nmol/ml to 200 nmol/ml. The mini-pigs were dosed i.v. with 10 nmol compound/kg body weight, occasionally other doses such as 4 nmol/kg, 30 nmol/kg or 50 nmol/kg were administered. Each compound was dosed to 3 or 4 mini-pigs, and two compounds may be given simultaneously to the same animal. Blood were sampled pre-dose and 12 times during the first 10 hours post-dose. Blood were furthermore sampled once daily until 13 days post dosing. The blood samples were collected into test tubes containing EDTA buffer, trasylol and Val-Pyr for stabilization and kept on ice for max. 20 minutes. Samples were centrifuged at 4° C., 2000G for 10 minutes to separate plasma. Plasma were collected and immediately transferred to Micronic tubes stored at −20° C. until assayed.
Plasma samples were analysed by LC-MS on an LTQ-Orbitrap (ThermoFisher Scientific, Bremen) to which Accela HPLC pumps and an autosampler were connected (both from ThermoFisher). […] HPLC was performed on a Jupiter Proteo column (4μ) 90A (50×2.0 mm ID). […] The flow rate was 0.3 ml/min. For analysis of plasma samples, 30 μl plasma was precipitated with 90 μl ethanol. […] The heptane phase was removed after 5 min and the remaining solution was analysed by LC-MS as described above. For construction of plasma standards, compound was spiked to plasma (minipig) at the following concentrations: 1 nM, 2 nM, 5 nM, 10 nM, 20 nM, 50 nM, 100 nM, 200 nM. The plasma standards were treated as the samples. The lower limit of quantification was estimated to 2 nM.
Non-compartmental analysis (NCA): Plasma concentration-time profiles were analyzed by non-compartmental pharmacokinetics analysis (NCA) using WinNonlin Professional 5.0 (Pharsight Inc., Mountain View, Calif., USA). NCA was performed using the individual plasma concentration-time profiles from each animal.
For determination of plasma concentration of the PYY and PP peptide derivative or analogues thereof the following Methods 1-4 were used.
as §1, with “bloodsampling. The compound” for “bloodsampling. Compound”, “to an appropriate” for “to a”, “concentration (e.g. 25-500 nmol/mL).” for “concentration of 180 nmol/ml.”, “dosed intravenously (i.v.) or subcutaneously (s.c.)” for “dosed”, “with between 1 and 30” for “with 6”, “buffer (with Aprotinin 15000 KIE/mL and Val-Pyr 0.30 mM)” for “buffer”
An additional mini-pig PK assay was used for measuring PK of the compounds of the invention. […] The animals had two central venous catheters inserted which were used for intra venous (i.v.) dosing and blood sampling.

The target of the next series is T1, Y2 receptor (UniProt P49146 1-381, limits assumed).
T1 sequence (looked up): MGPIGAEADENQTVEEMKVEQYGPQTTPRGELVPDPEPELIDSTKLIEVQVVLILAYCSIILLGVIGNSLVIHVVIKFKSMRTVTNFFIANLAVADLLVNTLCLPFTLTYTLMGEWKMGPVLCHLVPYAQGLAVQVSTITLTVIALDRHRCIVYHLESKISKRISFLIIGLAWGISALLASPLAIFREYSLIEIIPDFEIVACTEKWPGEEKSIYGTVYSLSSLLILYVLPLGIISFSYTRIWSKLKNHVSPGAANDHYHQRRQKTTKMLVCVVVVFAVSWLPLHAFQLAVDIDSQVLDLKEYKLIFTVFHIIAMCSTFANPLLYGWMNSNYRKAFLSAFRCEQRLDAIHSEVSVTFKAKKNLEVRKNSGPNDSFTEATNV
In words: cell-based or functional assay.

The target of a further series is Y4 receptor (UniProt P50391 1-375, limits assumed). Briefly: cell-based or functional assay.
Chain of Y4 receptor (P50391 whole entry): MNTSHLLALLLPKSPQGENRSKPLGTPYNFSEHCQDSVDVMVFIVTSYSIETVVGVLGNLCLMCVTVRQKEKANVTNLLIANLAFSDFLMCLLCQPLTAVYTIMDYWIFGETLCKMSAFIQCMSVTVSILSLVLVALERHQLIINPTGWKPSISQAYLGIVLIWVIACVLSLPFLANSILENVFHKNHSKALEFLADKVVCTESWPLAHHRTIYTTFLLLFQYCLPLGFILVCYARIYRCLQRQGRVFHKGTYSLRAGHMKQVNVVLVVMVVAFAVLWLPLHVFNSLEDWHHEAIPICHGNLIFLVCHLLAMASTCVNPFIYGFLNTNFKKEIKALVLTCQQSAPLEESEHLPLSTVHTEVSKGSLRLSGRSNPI

Molecule `CC[C@H](C)[C@H](NC(=O)[C@H](Cc1ccc(O)cc1)NC(=O)[C@H](CCCNC(=N)N)NC(=O)[C@H](CCCNC(=N)N)NC(=O)[C@H](CC(C)C)NC(=O)[C@H](CC(=O)O)NC(=O)[C@H](C)NC(=O)[C@H](C)NC(=O)[C@H](Cc1ccc(O)cc1)NC(=O)[C@H](CCC(N)=O)NC(=O)[C@H](C)NC(=O)[C@H](CC(C)C)NC(=O)[C@H](CCC(N)=O)NC(=O)[C@H](CCCCNC(=O)COCCOCCNC(=O)COCCOCCNC(=O)CC[C@H](NC(=O)[C@H]1CC[C@H](CNC(=O)CCCCCCCCCCCCCCCCCCC(=O)O)CC1)C(=O)O)NC(=O)[C@@H]1CCCN1C(=O)[C@@H](NC(=O)[C@H](C)NC(=O)[C@H](CC(N)=O)NC(=O)[C@H](CC(=O)O)NC(=O)CNC(=O)[C@@H]1CCCN1C(=O)[C@H](Cc1ccc(O)cc1)NC(=O)[C@@H](NC(=O)[C@@H]1CCCN1C(=O)[C@H](CCC(=O)O)NC(=O)[C@H](CC(C)C)NC(=O)[C@@H]1CCCN1C(=O)[C@H](C)N)C(C)C)[C@@H](C)O)C(=O)N[C@@H](CC(N)=O)C(=O)N[C@@H](CC(C)C)C(=O)N[C@@H](CC(C)C)C(=O)N[C@H](C(=O)N[C@@H](CCCNC(=N)N)C(=O)N1CCC[C@H]1C(=O)N[C@@H](CCCNC(=N)N)C(=O)N[C@@H](Cc1ccc(O)cc1)C(N)=O)[C@@H](C)O` [SEQ ID NO: 72, N-epsilon15-[2-(2-{2-[2-(2-{2-[(S)-4-Carboxy-4-({trans-4-[(19-carboxynonadecanoylamino)methyl]cyclohexanecarbonyl}amino)butyrylamino]-ethoxy}ethoxy)acetylamino]ethoxy}ethoxy)acetyl][Leu17,Lys15,Leu30]hPP1-36] (H-APLEPVYPGDNATPK([AEEA-AEEA-γGlu-Trx-C20 diacid])QLAQYAADLRRYINLLTRPRY-NH2) gave a half-life in series [1] of 14 h.
As for PLEPVYPGK([AEEA-AEEA-γGlu-Trx-C20 diacid])NATPEQLAQYAADLRRYINLLTRQRY (ends and bridges not checked), the “Y2 cAMP EC50” value with Y2 receptor stood at 25 nM.
On the same count and under the same terms, the value for {C18 diacid-γGlu-AEEA-AEEA}-PLEPVYPGDNATPEQLAQYAADLRRYINLLTRPRY (ends and bridges not checked) was above 1000 nM.
PLEPVYPGDNATPEQLAQYAADLRRYINLLTRPK([AEEA-AEEA-γGlu-Trx-C20 diacid])Y (ends and bridges not checked): the “Y4 cAMP EC50” value with Y4 receptor is above 1000 nM. For the same molecule, the “Y2 cAMP EC50” value with Y2 receptor is above 1000 nM.
On to APLEPVYPGDNAK([AEEA-AEEA-γGlu-C18 diacid])PEQMAQYAADLRRYINMLTRPRY (ends and bridges not checked) [N-epsilon13-[2-(2-{2-[2-(2-{2-[(S)-4-Carboxy-4-(17-carboxyheptadecanoylamino)butyrylamino]ethoxy}ethoxy)acetylamino]-ethoxy}ethoxy)acetyl][Lys13]hPP(1-36) (as …, listing 1 of 2 here], for which the “Y4 cAMP EC50” value with Y4 receptor worked out at 2 nM.
Still for that read-out and setting: to APLEPVYPGDNAK([AEEA-AEEA-γGlu-C18 diacid])PEQMAQYAADLRRYINMLTRPRY (ends and bridges not checked) [N-epsilon13-[2-(2-{2-[2-(2-{2-[(S)-4-Carboxy-4-(17-carboxyheptadecanoylamino)butyrylamino]ethoxy}ethoxy)acetylamino]-ethoxy}ethoxy)acetyl][Lys13]hPP(1-36) (as …, listing 2 of 2 here] belongs 4 nM.
PLEPVYPGDNATPEQLAQYAADLK([AEEA-AEEA-γGlu-Trx-C20 diacid])RYINLLTRPRY (ends and bridges not checked): in the series with Y4 receptor, the “Y4 cAMP EC50” value was above 1000 nM. The “Y2 cAMP EC50” value with Y2 receptor is above 1000 nM.

B1: N-alfa-[2-(2-{2-[2-(2-{2-[(S)-4-Carboxy-4-({trans-4-[(19-carboxynonadecanoylamino)methyl]cyclohexanecarbonyl}amino)butyrylamino]-ethoxy}ethoxy)acetylamino]ethox … (peptide)
peptide: PLEPVYPGDNATPEQLAQYAADLRRYINLLTRPRY
modifications: not fully specified (N-terminus); printed as N-alfa-[2-(2-{2-[2-(2-{2-[(S)-4-Carboxy-4-({trans-4-[(19-carboxynonadecanoylamino)methyl]cyclohexanecarbonyl}amino)butyrylamino]-ethoxy}ethoxy)acetylamino]ethoxy}ethoxy)acetyl][Leu17,Leu30]hPP2-36; ends and bridges not checked
Consider B1, for which the “Y2 cAMP EC50” value with Y2 receptor was above 1000 nM.

As a reminder, the half-life is the time needed for the level to fall by half in the phase considered. A high value points to slow loss.
